{
  "source": "patent US20230255948A1",
  "about": "(Stanford University, published 2023)",
  "key": {"[1]": {"target": "α4β1 integrin on mouse B16 melanoma cells and mouse RAW macrophage cells (mouse, UniProt Q00651 41-1039; P09055 21-798)", "sequence (Q00651 41-1039, chain 1 of 2)": "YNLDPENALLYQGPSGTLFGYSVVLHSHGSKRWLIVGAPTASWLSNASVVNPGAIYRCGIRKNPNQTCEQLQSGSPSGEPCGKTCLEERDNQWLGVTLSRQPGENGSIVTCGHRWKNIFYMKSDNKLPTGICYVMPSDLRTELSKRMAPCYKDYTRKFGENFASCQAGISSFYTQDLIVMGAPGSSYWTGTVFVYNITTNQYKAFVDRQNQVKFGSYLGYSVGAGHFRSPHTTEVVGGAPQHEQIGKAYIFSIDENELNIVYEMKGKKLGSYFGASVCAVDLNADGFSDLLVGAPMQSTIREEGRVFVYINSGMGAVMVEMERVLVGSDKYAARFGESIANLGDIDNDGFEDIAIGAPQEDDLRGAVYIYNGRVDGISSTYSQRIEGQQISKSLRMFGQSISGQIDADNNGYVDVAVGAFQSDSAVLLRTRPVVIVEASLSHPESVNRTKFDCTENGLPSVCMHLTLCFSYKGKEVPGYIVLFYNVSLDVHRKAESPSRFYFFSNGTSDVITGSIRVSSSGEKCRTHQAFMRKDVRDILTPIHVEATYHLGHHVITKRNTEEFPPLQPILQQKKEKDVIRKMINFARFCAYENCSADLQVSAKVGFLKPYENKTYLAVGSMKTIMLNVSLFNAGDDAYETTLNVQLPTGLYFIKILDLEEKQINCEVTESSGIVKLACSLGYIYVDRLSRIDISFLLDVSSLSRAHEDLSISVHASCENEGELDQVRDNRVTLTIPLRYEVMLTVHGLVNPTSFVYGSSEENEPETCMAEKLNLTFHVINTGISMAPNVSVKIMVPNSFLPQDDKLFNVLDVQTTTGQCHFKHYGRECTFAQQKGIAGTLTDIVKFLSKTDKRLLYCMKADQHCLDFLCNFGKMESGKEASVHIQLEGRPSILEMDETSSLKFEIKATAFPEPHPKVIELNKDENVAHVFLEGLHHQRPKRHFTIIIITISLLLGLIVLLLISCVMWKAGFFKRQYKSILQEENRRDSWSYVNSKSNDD", "sequence (P09055 21-798, chain 2 of 2)": "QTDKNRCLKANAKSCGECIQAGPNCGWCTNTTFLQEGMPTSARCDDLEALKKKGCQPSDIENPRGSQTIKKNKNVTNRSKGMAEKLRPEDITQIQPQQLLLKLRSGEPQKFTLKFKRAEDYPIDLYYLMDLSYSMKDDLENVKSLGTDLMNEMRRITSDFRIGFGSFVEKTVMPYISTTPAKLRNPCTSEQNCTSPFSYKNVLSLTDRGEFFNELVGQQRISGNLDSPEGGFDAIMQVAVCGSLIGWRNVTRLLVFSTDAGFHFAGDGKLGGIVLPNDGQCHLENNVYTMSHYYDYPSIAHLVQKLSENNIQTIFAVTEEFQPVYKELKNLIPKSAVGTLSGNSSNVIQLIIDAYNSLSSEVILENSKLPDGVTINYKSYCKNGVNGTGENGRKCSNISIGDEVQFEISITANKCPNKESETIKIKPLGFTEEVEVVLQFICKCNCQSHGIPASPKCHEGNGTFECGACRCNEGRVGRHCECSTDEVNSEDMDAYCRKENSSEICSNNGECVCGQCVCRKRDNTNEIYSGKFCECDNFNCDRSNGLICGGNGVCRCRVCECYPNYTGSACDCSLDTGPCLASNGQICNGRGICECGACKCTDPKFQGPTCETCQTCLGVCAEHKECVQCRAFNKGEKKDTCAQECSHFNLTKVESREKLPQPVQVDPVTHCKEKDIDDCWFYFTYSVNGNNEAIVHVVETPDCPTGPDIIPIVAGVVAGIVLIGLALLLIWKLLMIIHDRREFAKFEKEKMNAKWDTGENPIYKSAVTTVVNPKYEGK", "assay": "cell-based or functional assay"}, "[2]": {"target": "α9β1 integrin on mouse RAW macrophage cells (mouse, UniProt B8JK39 29-1036; P09055 21-798)", "sequence (B8JK39 29-1036, chain 1 of 2)": "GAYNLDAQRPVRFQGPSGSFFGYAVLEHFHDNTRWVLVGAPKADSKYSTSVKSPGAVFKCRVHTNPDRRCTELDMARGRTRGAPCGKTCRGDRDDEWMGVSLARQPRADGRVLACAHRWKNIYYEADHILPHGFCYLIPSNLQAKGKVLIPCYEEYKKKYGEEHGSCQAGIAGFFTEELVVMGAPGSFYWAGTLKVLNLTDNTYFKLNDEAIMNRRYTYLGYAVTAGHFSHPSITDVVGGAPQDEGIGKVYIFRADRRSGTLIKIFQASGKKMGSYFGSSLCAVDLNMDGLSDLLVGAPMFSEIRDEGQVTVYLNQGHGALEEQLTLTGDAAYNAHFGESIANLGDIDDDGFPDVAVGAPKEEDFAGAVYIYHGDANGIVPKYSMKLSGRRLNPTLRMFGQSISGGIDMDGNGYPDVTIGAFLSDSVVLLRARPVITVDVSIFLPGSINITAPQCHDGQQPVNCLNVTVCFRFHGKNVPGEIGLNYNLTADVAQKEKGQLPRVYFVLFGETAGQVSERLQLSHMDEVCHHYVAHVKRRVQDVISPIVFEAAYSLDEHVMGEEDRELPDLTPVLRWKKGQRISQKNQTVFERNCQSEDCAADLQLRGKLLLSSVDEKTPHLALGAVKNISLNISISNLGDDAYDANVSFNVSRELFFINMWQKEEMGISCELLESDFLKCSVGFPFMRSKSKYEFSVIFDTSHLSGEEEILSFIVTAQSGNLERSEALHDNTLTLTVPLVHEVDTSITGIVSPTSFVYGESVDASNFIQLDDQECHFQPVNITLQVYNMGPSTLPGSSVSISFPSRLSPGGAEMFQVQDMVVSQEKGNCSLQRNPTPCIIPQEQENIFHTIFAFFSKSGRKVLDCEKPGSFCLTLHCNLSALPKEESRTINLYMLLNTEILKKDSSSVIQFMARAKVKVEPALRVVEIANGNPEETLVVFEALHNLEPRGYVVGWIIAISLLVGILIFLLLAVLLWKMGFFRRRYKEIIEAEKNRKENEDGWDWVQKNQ", "sequence (P09055 21-798, chain 2 of 2)": "as the sequence (P09055 21-798, chain 2 of 2) above", "assay": "cell-based or functional assay"}},
  "data": [
    {"binder": "RGDSVVYGLR (ligand)", "note": "[Thrombin-cleaved OPN-Arg (OPN-R)]", "values": [
      {"measurement": "B16 cell adhesion", "setting": "[1]", "value": "~3.5", "unit": "fold"},
      {"measurement": "PGE2 secretion in RAW cells", "setting": "[1]", "value": "~4.2", "unit": "fold"},
      {"measurement": "PGE2 secretion in RAW cells", "setting": "[2]", "value": "~4.2", "unit": "fold"}
    ]}
  ]
}
